Laboratory results published in paper PMC8967867 (2022).

T1: CID1R^ML, maximum likelihood reconstructed CBP-interacting domain (CID) of the NCOA family from an early …
T1 chain: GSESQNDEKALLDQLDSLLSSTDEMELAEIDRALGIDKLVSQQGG


Assays:
[1] = molecular target: T1, CID1R^ML, maximum likelihood …; experiment: ITC
[2] = molecular target: CID1R^AltAll, alternative reconstructed CID of the early vertebrate ancestor (1R) with the second most likely …; experiment: ITC

Kd [1]	Kd [2]	Binder
9.7 µM	–	IMPPALQQLLQTLKSPNSPQQQQQVLHILKSNPQLMAAFIKQRSQQQQ (domain or fragment)
–	2.2 µM	GSTPPQALQQLLQTLKSPSSPQQQQQVLQILKSNPQLMAAFIKQRSQHQQ (domain or fragment)
